Source: US20130216513A1 (Biogen, published 2013)

Target: T1, GPIIbIIIa on activated human platelets (human, UniProt P08514 32-1039; P05106 27-788)
T1 construct: whole, on cells; also called active form of GPIIbIIIa
Experiment: FACS on activated human platelets, FITC-labeled FVII antibody; reference FVIIaFc (FVII-011); FIG. 44C

B1: FVII-094 (other)
chain 1: ANAFLEELRPGSLERECKEEQCSFEEAREIFKDAERTKLFWISYSDGDQCASSPCQNGGSCKDQLQSYICFCLPAFEGRNCETHKDDQLICVNENGGCEQYCSDHTGTKRSCRCHEGYSLLADGVSCTPTVEYPCGKIPILEKRNASKPQGR
chain 2: IVGGKVCPKGECPWQVLLLVNGAQLCGGTLINTIWVVSAAHCFDKIKNWRNLIAVLGEHDLSEHDGDEQSRRVAQVIIPSTYVPGTTNHDIALLRLHQPVVLTDHVVPLCLPERTFSERTLAFVRFSLVSGWGQLLDRGATALELMVLNVPRLMTQDCLQQSRKVGDSPNITEYMFCAGYSDGSKDSCKGDSGGPHATHYRGTWYLTGIVSWGQGCATVGHFGVYTRVSQYIEWLQKLMRSEPRPGVLLRAPFPDIGGGGSGGGGSGGGGSGGGGSGGGGSGGGGSAQVQLQESGGGLVQPGGSLRLSCAASGFMFSRYAMSWVRQAPGKGPEWVSGISGSGGSTYYADSVKGRFTVSRDNSKNTLYLQMNSLRAEDTAVYYCARGATYTSRSDVPDQTSFDYWGQGTLVTVSSGSASAPKLEEGEFSEARVSELTQDPAVSVALGQTVRITCQGDSLRNFYASWYQQKPGQAPTLVIYGLSKRPSGIPDRFSASSSGNTASLTITGAQAEDEADYYCLLYYGGGQQGVFGGGTKLTVLRQPKAAPSVTLFPPSSAA
notes: SCE5 at the C-terminus of FVIIa; no Fc; also called pSYN-FVII-094
- binding result: binds
